Test system: AIA rat model of arthritis
Test: Adjuvant-induced arthritis (AIA) rat model
Type: in vivo
Settings: percent protection, isotype control subtracted
Protocol: Induction of Adjuvant Induced Arthritis […]: Six-eight week old female DA rats (Harlen) were used. On day 0, isoflurane anesthetized animals were given an intradermal injection, at base of tail, 0.75 mg of mycobacterium butyricum (Difco #0640-33-7) mixed in 100 μl incomplete Freund's adjuvant (Difco, Detroit, Mich.).
The human anti-HMG1 antibody G4, the A-box-Fc fusion and the huIgG isotype control were administered at 10 mg/kg, every 3 days, day 0-15. Methotrexate was administered at 0.8 mg/kg, every 6 days, day 0-15 and Renbrel was administered at either 2.5 mg/kg every two days, day 0-15 for treatment group 5 or at 4 mg/kg, every 3 days, day 0-15 for treatment group 6. […]
Monitoring Disease: Beginning at day 6 all animals were observed daily to assess the status of the disease in their paws, which was done by assigning a qualitative clinical score to each of the paws. Every day, each animal has its 4 paws scored according to its state of clinical disease. […] In addition, each mouse is weighed, to follow body weight changes, at the same time the paws are scored.
The joints of the 4 lateral digits of each paw are graded as involved or not involved, i.e., 1 or 0. For example, a maximally involved left rear paw would be scored: ankles=4, midfoot=4, MTP=4, PIP=4, DIP=4 (20 units). […]

B1: S16: human anti-HMG1 antibody, ATCC PTA-6259; VL/VH aa SEQ ID NO: 13/15 (antibody, listed as Homo sapiens, V domains shown)
VH: EVQLLESGGGLVQPGGSLRLSCAASGFTFSWYSMLWVRQAPGKGLEWVSYISPSGGFTNYADSVKGRFTISRDNSKNTLYLQMNSLRAEDTAVYYCARWDYNSGWYYDHWGQGTLVTVSS
VL: AQDIQMTQSPDTLSLSPGERATLSCRASQSVNSRNLAWYQQKPGQAPRLLIYGASTRATGIPDRFSGSVSGTEFTLTISSLQPDDFATYYCQQYNSYFTFGQGTKLEIK
- in vivo AIA: 0%
